Consider 47 sequences from the Immune Epitope Database (IEDB).

Holding throughout (assay): IEDB peptide-MHC binding, purified MHC/competitive/radioactivity; ≥ and ≤ were set here for values at or beyond the usual limits of such assays
In assay [1] the target is HLA-A*02:01.
Assay [2] concerns the target HLA-A*02:03.
Assay [3] has as its target HLA-A*68:02.
Assay [4] addresses HLA-A*02:06.
Assay [5] deals with HLA-A*02:02.
Setting [6] is: source organism: Vaccinia virus WR.
[7] abbreviates: source organism: Hepacivirus hominis.
Setting [8] is: source organism: Influenza A virus.

Take ETIEILRNYL: the IC50 in assay [1] (setting [6]) was 944 nM; in assay [2] (setting [6]) it was 1410 nM; in assay [3] (setting [6]), 0.13 nM; in assay [4] (setting [6]), 0.28 nM; in assay [5] (setting [6]), 474 nM.
Take CVSNLDISSV: the IC50 came to 1480 nM in assay [1] (setting [6]); 2.3 nM in assay [2] (setting [6]); 1030 nM in assay [3] (setting [6]); 48 nM in assay [4] (setting [6]); 52 nM in assay [5] (setting [6]).
As to VITYCLVTHM, the half-inhibitory concentration (IC50) in assay [1] (setting [6]) is 1320 nM; in assay [2] (setting [6]), 582 nM; in assay [3] (setting [6]), 387 nM; in assay [4] (setting [6]), 2620 nM; in assay [5] (setting [6]) it was 478 nM.
In the same order, the values of TMSIYIAVA are 136 nM, 41 nM, 300 nM, 786 nM and 81 nM.
For the sequence ILFILFFAYV, the IC50 in assay [1] (setting [6]) stood at 139 nM; in assay [2] (setting [6]), 366 nM; in assay [3] (setting [6]), 320 nM; in assay [4] (setting [6]), 1210 nM; in assay [5] (setting [6]) it was 132 nM.
In the same order, the values of TTLLNETAKV are 2880 nM, 0.17 nM, 237 nM, 1650 nM and 1640 nM.
Take FIPIIYSKA: the IC50 in assay [1] (setting [6]) amounted to 163 nM; in assay [2] (setting [6]), 1.8 nM; in assay [3] (setting [6]) it was 78 nM; in assay [4] (setting [6]) it was 95 nM; in assay [5] (setting [6]) it was 0.56 nM.
Consider SMYVIPDELI, for which the concentration for half-maximal inhibition (IC50) was 380 nM in assay [1] (setting [6]); 114 nM in assay [2] (setting [6]); 1740 nM in assay [3] (setting [6]); 492 nM in assay [4] (setting [6]); 31 nM in assay [5] (setting [6]).
As for FVFNGTSWFI, the IC50 in assay [1] (source organism: SARS-CoV1) was 1.1 nM; in assay [2] (source organism: SARS-CoV1), 2.2 nM; in assay [3] (source organism: SARS-CoV1) it was 0.33 nM; in assay [4] (source organism: SARS-CoV1), 0.44 nM; in assay [5] (source organism: SARS-CoV1), 1 nM.
In the same order, the values of FMRFFTLGSI are 105 nM, 0.76 nM, 412 nM, 195 nM and 24 nM.
Take YIAGLKIEEI: the IC50 is 9.5 nM in assay [1] (setting [6]); 5.3 nM in assay [2] (setting [6]); 669 nM in assay [3] (setting [6]); 134 nM in assay [4] (setting [6]); 8.9 nM in assay [5] (setting [6]).
WLMWFIISIV: the half-maximal inhibitory concentration (IC50) in assay [1] (source organism: SARS-CoV1) turned out to be 33 nM; in assay [2] (source organism: SARS-CoV1), 4.7 nM; in assay [3] (source organism: SARS-CoV1), 2890 nM; in assay [4] (source organism: SARS-CoV1), 107 nM; in assay [5] (source organism: SARS-CoV1), 246 nM.
With TIFDIVSKCI, the IC50 worked out at 596 nM in assay [1] (setting [6]); 94 nM in assay [2] (setting [6]); 109 nM in assay [3] (setting [6]); 701 nM in assay [4] (setting [6]); 198 nM in assay [5] (setting [6]).
For AISYCRAFI, the IC50 in assay [1] (setting [6]) came to 169 nM; in assay [2] (setting [6]), 149 nM; in assay [3] (setting [6]), 98 nM; in assay [4] (setting [6]), 146 nM; in assay [5] (setting [6]), 17 nM.
In the same order, the values of LMIGNYFSGV are 0.27 nM, 0.093 nM, 160 nM, 0.13 nM and 0.13 nM.
Take VMCGGSLYV: the IC50 in assay [1] (source organism: SARS-CoV1) amounted to 0.39 nM; in assay [2] (source organism: SARS-CoV1), 7.5 nM; in assay [3] (source organism: SARS-CoV1), 2910 nM; in assay [4] (source organism: SARS-CoV1), 6.8 nM; in assay [5] (source organism: SARS-CoV1) it was 0.61 nM.
In the case of MLLTFLTSLL, the IC50 was 11 nM in assay [1] (source organism: SARS-CoV1); 7.3 nM in assay [2] (source organism: SARS-CoV1); 299 nM in assay [3] (source organism: SARS-CoV1); 25 nM in assay [4] (source organism: SARS-CoV1); 0.73 nM in assay [5] (source organism: SARS-CoV1).
On to NIISYIILFI, for which the IC50 amounted to 156 nM in assay [1] (setting [6]); 133 nM in assay [2] (setting [6]); 25 nM in assay [3] (setting [6]); 72 nM in assay [4] (setting [6]); 123 nM in assay [5] (setting [6]).
On to GALDVSASV, for which the IC50 in assay [1] (source organism: SARS-CoV1) was 3.4 nM; in assay [2] (source organism: SARS-CoV1) it was 2.3 nM; in assay [3] (source organism: SARS-CoV1), 2.9 nM; in assay [4] (source organism: SARS-CoV1), 2.3 nM; in assay [5] (source organism: SARS-CoV1), 0.72 nM.
For the sequence TSISGVLWTV, the IC50 was found to be 26 nM in assay [1] (setting [7]); 27 nM in assay [2] (setting [7]); 2.2 nM in assay [3] (setting [7]); 82 nM in assay [4] (setting [7]); 8.1 nM in assay [5] (setting [7]).
Regarding NLFEKFFPSS, the IC50 is 271 nM in assay [1] (setting [8]); 362 nM in assay [2] (setting [8]); 360 nM in assay [3] (setting [8]); 28 nM in assay [4] (setting [8]); 415 nM in assay [5] (setting [8]).
Consider VVFLHVTYV, for which the IC50 in assay [1] (source organism: SARS-CoV1) was 3.9 nM; in assay [2] (source organism: SARS-CoV1), 0.28 nM; in assay [3] (source organism: SARS-CoV1), 1 nM; in assay [4] (source organism: SARS-CoV1), 3.9 nM; in assay [5] (source organism: SARS-CoV1), 7.8 nM.
Regarding TLIDFYLCFL, the IC50 in assay [1] (source organism: SARS-CoV1) amounted to 2.2 nM; in assay [2] (source organism: SARS-CoV1), 3.6 nM; in assay [3] (source organism: SARS-CoV1), 151 nM; in assay [4] (source organism: SARS-CoV1), 3 nM; in assay [5] (source organism: SARS-CoV1), 0.041 nM.
On to RLLLLGLLLL, for which the concentration for half-maximal inhibition (IC50) in assay [1] (setting [7]) worked out at 496 nM; in assay [2] (setting [7]), 4250 nM; in assay [3] (setting [7]), 3610 nM; in assay [4] (setting [7]), 1050 nM; in assay [5] (setting [7]), 1200 nM.
In the case of DQLVFNSISA, the IC50 worked out at 527 nM in assay [1] (setting [6]); 289 nM in assay [2] (setting [6]); 4130 nM in assay [3] (setting [6]); 759 nM in assay [4] (setting [6]); 206 nM in assay [5] (setting [6]).
In the same order, the values of IALALEQYGI are 3020 nM, 4920 nM, 2900 nM, 1130 nM and 980 nM.
As to ALAEHISDSI, the IC50 in assay [1] (setting [6]) is 8.7 nM; in assay [2] (setting [6]), 0.34 nM; in assay [3] (setting [6]) it was 272 nM; in assay [4] (setting [6]), 163 nM; in assay [5] (setting [6]) it was 0.2 nM.
IVNSVLLFL: the IC50 in assay [1] (source organism: SARS-CoV1) was 68 nM; in assay [2] (source organism: SARS-CoV1), 179 nM; in assay [3] (source organism: SARS-CoV1) it was 2090 nM; in assay [4] (source organism: SARS-CoV1) it was 30 nM; in assay [5] (source organism: SARS-CoV1) it was 7.1 nM.
Turning to GTSVIRSNI, the IC50 in assay [1] (setting [6]) is 666 nM; in assay [2] (setting [6]), 45 nM; in assay [3] (setting [6]) it was 96 nM; in assay [4] (setting [6]), 1610 nM; in assay [5] (setting [6]) it was 386 nM.
Consider AMLKSKNINI, for which the IC50 in assay [1] (setting [6]) came out at 175 nM; in assay [2] (setting [6]), 223 nM; in assay [3] (setting [6]), 4740 nM; in assay [4] (setting [6]), 200 nM; in assay [5] (setting [6]), 1650 nM.
In the same order, the values of TINVNSLAL are 1530 nM, 1540 nM, 1530 nM, 2180 nM and 1980 nM.
In the same order, the values of VTFINDYANL are 2480 nM, 247 nM, 527 nM, 148 nM and 99 nM.
In the same order, the values of NTIDKSSPL are 972 nM, 27 nM, 5.7 nM, 19 nM and 82 nM.
Turning to HIKTIAVSV, the IC50 is 1050 nM in assay [1] (setting [6]); 9.6 nM in assay [2] (setting [6]); 381 nM in assay [3] (setting [6]); 1550 nM in assay [4] (setting [6]); 3080 nM in assay [5] (setting [6]).
Take FLFLAWIML: the IC50 in assay [1] (source organism: SARS-CoV1) was 6.4 nM; in assay [2] (source organism: SARS-CoV1) it was 38 nM; in assay [3] (source organism: SARS-CoV1), 1340 nM; in assay [4] (source organism: SARS-CoV1), 37 nM; in assay [5] (source organism: SARS-CoV1) it was 1.8 nM.
On to NVISKIYTLI, for which the IC50 in assay [1] (setting [6]) worked out at 329 nM; in assay [2] (setting [6]), 33 nM; in assay [3] (setting [6]), 67 nM; in assay [4] (setting [6]), 196 nM; in assay [5] (setting [6]), 0.99 nM.
In the case of ALYKGFQFI, the half-inhibitory concentration (IC50) is 5.2 nM in assay [1] (source organism: SARS-CoV1); 3.3 nM in assay [2] (source organism: SARS-CoV1); 4450 nM in assay [3] (source organism: SARS-CoV1); 2 nM in assay [4] (source organism: SARS-CoV1); 0.53 nM in assay [5] (source organism: SARS-CoV1).
On to SMYGKAFNHA, for which the IC50 was determined as 9.7 nM in assay [1] (setting [6]); 0.93 nM in assay [2] (setting [6]); 163 nM in assay [3] (setting [6]); 4 nM in assay [4] (setting [6]); 6.6 nM in assay [5] (setting [6]).
In the same order, the values of FAISYCRAFI are 1970 nM, 38 nM, 1.7 nM, 35 nM and 105 nM.
In the same order, the values of MMNERDVSV are 1.1 nM, 0.27 nM, 566 nM, 64 nM and 0.44 nM.
For the sequence YLRGHTESI, the IC50 came to 3.7 nM in assay [1] (setting [6]); 0.18 nM in assay [2] (setting [6]); 506 nM in assay [3] (setting [6]); 91 nM in assay [4] (setting [6]); 0.21 nM in assay [5] (setting [6]).
TIAVSVYGA: the IC50 in assay [1] (setting [6]) stood at 104 nM; in assay [2] (setting [6]), 9.9 nM; in assay [3] (setting [6]), 32 nM; in assay [4] (setting [6]) it was 99 nM; in assay [5] (setting [6]) it was 25 nM.
For the sequence IAACAMLLV, the IC50 was determined as 567 nM in assay [1] (source organism: SARS-CoV1); 387 nM in assay [2] (source organism: SARS-CoV1); 389 nM in assay [3] (source organism: SARS-CoV1); 131 nM in assay [4] (source organism: SARS-CoV1); 320 nM in assay [5] (source organism: SARS-CoV1).
For the sequence TLLGCWSFV, the IC50 is 30 nM in assay [1] (setting [7]); 41 nM in assay [2] (setting [7]); 1780 nM in assay [3] (setting [7]); 134 nM in assay [4] (setting [7]); 87 nM in assay [5] (setting [7]).
Consider NMCNSDVSV, for which the IC50 in assay [1] (setting [6]) amounted to 88 nM; in assay [2] (setting [6]) it was 30 nM; in assay [3] (setting [6]), 202 nM; in assay [4] (setting [6]), 97 nM; in assay [5] (setting [6]), 80 nM.
For KLLYAAEMV, the IC50 in assay [1] (setting [6]) stood at 48 nM; in assay [2] (setting [6]), 54 nM; in assay [3] (setting [6]), 2810 nM; in assay [4] (setting [6]) it was 18 nM; in assay [5] (setting [6]), 58 nM.
As to LLSAGIFGA, the IC50 in assay [1] (source organism: SARS-CoV1) was found to be 8.1 nM; in assay [2] (source organism: SARS-CoV1), 15 nM; in assay [3] (source organism: SARS-CoV1), 106 nM; in assay [4] (source organism: SARS-CoV1), 25 nM; in assay [5] (source organism: SARS-CoV1), 12 nM.
